In patent publication CN109678957A:

Molecular target: 人重组TSLP蛋白 (recombinant human TSLP protein from E. coli GDMCC No:60083) (human) (UniProt Q969D9)
Assay: ELISA, dilution series of the antibody on TSLP antigen protein (Fig. 4)

UniProt Q969D9, sequence (Q969D9 29-159 limits assumed): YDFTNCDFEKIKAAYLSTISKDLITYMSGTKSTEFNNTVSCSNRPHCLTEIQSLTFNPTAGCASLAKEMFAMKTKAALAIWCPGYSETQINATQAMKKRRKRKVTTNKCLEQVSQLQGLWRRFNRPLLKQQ

效价 (titer, dilution fold at which OD is more than 2 times the negative control) (倍 (dilution fold)): 655000
B1: 抗人TSLP单克隆抗体 (anti-human TSLP monoclonal antibody, from hybridoma ascites, Example 3) (antibody, IgG1, V domains shown)
VH: QIQLVQSGPELKKPGETVKISCKASGYTFTNYGMNWVKQAPGKGLKWMGWINTYTGEPTYADDFKGRFAFSLETSASTAYLQINNLKNEDMATYFCARGLTGTRGRFAYWGQGTLVTVSA
VL: DIVMTQSHKFMSTSVGDRVSITCKASQDVSTAVAWYQQKPGQSPKLLIYWASTRHTGVPDRFTGSGSGTDYTLTISSVQAEDLALYYCQQHYSTPPTFGGGTKLEIK
